# Values quoted from earlier work as cited in patent US20220223299A1, “METHODS AND APPARATUSES FOR MODELING, SIMULATING, AND TREATING HEREDITARY ANGIOEDEMA” (Takeda Pharmaceutical Company Limited, priority 2019, published 2022).
# B1: Lanadelumab: fully human IgG1 recombinant monoclonal antibody inhibitor of activated plasma kallikrein (antibody, chains of the INN, looked up, V domains shown)
# VH: EVQLLESGGGLVQPGGSLRLSCAASGFTFSHYIMMWVRQAPGKGLEWVSGIYSSGGITVYADSVKGRFTISRDNSKNTLYLQMNSLRAEDTAVYYCAYRRIGVPRRDEFDIWGQGTMVTVSS
# VL: DIQMTQSPSTLSASVGDRVTITCRASQSISSWLAWYQQKPGKAPKLLIYKASTLESGVPSRFSGSGSGTEFTLTISSLQPDDFATYYCQQYNTYWTFGQGTKVEIK
# Experiments:
# FXIIa = target: T1, FXIIa (Homo sapiens, UniProt P00748); conditions: FXIIa in plasma and FXIIa_gC1qR
# T1 sequence (P00748 20-372 partner limits assumed): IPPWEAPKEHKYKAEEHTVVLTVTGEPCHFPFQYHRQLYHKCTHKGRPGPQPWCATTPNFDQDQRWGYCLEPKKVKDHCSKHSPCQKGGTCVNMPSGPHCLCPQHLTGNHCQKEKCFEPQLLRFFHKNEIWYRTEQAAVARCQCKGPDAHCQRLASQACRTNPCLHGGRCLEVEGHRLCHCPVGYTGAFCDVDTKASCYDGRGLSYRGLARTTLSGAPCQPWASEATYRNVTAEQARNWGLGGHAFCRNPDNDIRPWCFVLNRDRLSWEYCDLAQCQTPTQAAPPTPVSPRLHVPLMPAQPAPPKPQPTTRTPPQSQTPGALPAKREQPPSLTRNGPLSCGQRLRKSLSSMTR
# T1 sequence (P00748 373-615 limits assumed): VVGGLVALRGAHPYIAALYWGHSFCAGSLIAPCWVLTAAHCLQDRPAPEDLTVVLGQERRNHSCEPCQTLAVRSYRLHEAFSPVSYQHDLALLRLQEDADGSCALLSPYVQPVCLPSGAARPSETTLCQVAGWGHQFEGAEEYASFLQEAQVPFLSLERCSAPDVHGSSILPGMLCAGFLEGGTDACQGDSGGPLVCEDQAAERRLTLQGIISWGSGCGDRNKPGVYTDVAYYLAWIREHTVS
# KAL (kallikrein) = target: T2, KAL (kallikrein) (Homo sapiens, UniProt P03952); conditions: KAL in plasma, KAL_HMWK in plasma and KAL_HMWK_gC1qR
# T2 construct: The preKAL is cleaved by FXIIa resulting in KAL, the two-chain enzyme kallikrein
# T2 sequence (P03952 20-390 partner limits assumed): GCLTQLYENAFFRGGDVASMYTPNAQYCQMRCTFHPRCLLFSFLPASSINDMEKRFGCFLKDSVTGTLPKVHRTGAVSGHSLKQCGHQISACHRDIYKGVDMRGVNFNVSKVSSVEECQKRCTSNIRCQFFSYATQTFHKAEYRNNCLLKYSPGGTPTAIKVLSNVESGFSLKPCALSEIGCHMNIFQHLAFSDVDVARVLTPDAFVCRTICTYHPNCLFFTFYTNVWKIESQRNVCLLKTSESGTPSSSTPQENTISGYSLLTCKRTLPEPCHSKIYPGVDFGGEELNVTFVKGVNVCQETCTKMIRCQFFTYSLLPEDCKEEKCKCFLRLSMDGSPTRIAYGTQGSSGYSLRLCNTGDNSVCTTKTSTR
# T2 sequence (P03952 391-638 limits assumed): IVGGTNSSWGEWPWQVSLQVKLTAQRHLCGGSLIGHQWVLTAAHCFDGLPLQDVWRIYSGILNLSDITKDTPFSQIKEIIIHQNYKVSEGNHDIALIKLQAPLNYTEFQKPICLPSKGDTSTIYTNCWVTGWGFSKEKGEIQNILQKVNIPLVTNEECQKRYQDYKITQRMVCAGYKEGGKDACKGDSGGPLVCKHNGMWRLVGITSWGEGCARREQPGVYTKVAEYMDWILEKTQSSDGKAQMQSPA
# KAL (plasma kallikrein) = target: T3, KAL (plasma kallikrein) (Homo sapiens, UniProt P03952); conditions: KAL in plasma, KAL_HMWK in plasma and KAL_HMWK_gC1qR
# T3 construct: The preKAL is cleaved by FXIIa resulting in KAL, the two-chain enzyme kallikrein
# T3 sequence (P03952 20-390 partner limits assumed): as the sequence (P03952 20-390 partner limits assumed) above
# T3 sequence (P03952 391-638 limits assumed): as the sequence (P03952 391-638 limits assumed) above
# [1] = in vivo
Molecule,koff_C1Inh_FXIIa (FXIIa) [s⁻¹],kon_C1Inh_FXIIa (FXIIa) [M⁻¹ s⁻¹],Kd (FXIIa; read-out: Kd_C1Inh_FXIIa) [nM],koff_C1Inh_KAL (KAL (kallikrein)) [s⁻¹],kon_C1Inh_KAL (KAL (kallikrein)) [M⁻¹ s⁻¹],Kd (KAL (kallikrein); read-out: Kd_C1Inh_KAL) [nM],"kdeg_C1Inh, degradation rate for C1Inh (vascular space) [s⁻¹]","kdeg_Bound_C1Inh, degradation rate for bound C1Inh (vascular space, bound C1Inh) [s⁻¹]",koff_KAL_Lanadelumab (KAL (plasma kallikrein)) [s⁻¹],kon_KAL_Lanadelumab (KAL (plasma kallikrein)) [M⁻¹ s⁻¹],Kd (KAL (plasma kallikrein); read-out: Kd_KAL_Lanadelumab) [nM],half-life [1] [days],"kdeg Lanadelumab KAL HMWK gC1qR, degradation rate for Lanadelumab bound with KAL HMWK gC1qR receptor complex (proximal space) [s⁻¹]"
C1Inh: C1 inhibitor protein; binds to and inhibits both Factor XIIa and kallikrein,0.06364,37000,1720,0.00255,17000,150,4.58e-06,0.0038508,–,–,–,–,–
B1,–,–,–,–,–,–,–,–,0.0004033,3.36e+06,0.12,14,9.63e-05
